The values that follow come from the RNAGym collection of RNA variant scans (doi:10.7554/elife.90254).

B1: OR4K15 (parent)
chain: GUUAACGGUCAUAGGCCAUGGAAACUAGGAGCACCAUUUCGCUGCCAGUGAAGAAAUGAACAAAGAAAAUCUGGGCCAGGCAGGCAUCAAAAGAAAUAGUCUUGCGCUCAACCAGAAAGUCUGUAAUCAUUUUAAGGGUA

In the data set the parent is B1. Briefly: self-cleavage, relative activity (ratio to wild type); higher = more cleavage; in vitro, sequencing; the parent is a self-cleaving ribozyme.
Regarding GUUAACGGUCAUAGGCCAUGGAAACUAGGAGCACCAUUUCGCUGCCAGUGAAGAAAUGAACAAAGAAAAUCUGGGCCAGGCAGGCAUCAAAAGAAAUAGUCUUGCGCUCAACCGGAAAGUCUGUAAUCAUUUUAAGGGUU, the self-cleavage stood at 0.41.

In the case of GUUAACGGUCAUAGGCCGUGGAAACUAGGAGCACCAUUCCGCUGCCAGUGAAGAAAUGAACAAAGAAAAUCUGGGCCAGGCAGGCAUCAAAAGAAAUAGUCUUGCGCUCAACCAGAAAGUCUGUAAUCAUUUUAAGGGUA, the self-cleavage came to 1.77.

As for GCUAACGGUCAUAGGCCAUGGAAACUAGGAGCACCAUUUCGCUGCCAGUGAAGAAAUGAACAAAGAAAAUCUGGGCCAGGCAGGCAUCAAAAGAAAUAGUCUUGCGCUCAACCCGAAAGUCUGUAAUCAUUUUAAGGGUA, the self-cleavage was determined as 0.03.

Take GUUAACGGUCAUAGGCCUUGGAAACUAGGAGCACCAUUUCGCUGCCAGUGAAGAAAUGAACAAAGAAAAUCUGGGCCAGGCAGGCAUCAAAAGAAAUAGUCUUGCGCUCAACCGGAAAGUCUGUAAUCAUUUUAAGGGUA: the self-cleavage is 0.35.

On to GUUAACGGUCAAAGGCCAUGGAAACUAGGAGCACCAUUUCGCUGCCAGUGAAGAGAUGAACAAAGAAAAUCUGGGCCAGGCAGGCAUCAAAAGAAAUAGUCUUGCGCUCAACCAGAAAGUCUGUAAUCAUUUUAAGGGUA, for which the self-cleavage worked out at 1.3.

On to GUUAACGGCCAUAGGCCAUGGAAACUAGGAGCACCAUUUCGCUGCCAGUGACGAAAUGAACAAAGAAAAUCUGGGCCAGGCAGGCAUCAAAAGAAAUAGUCUUGCGCUCAACCAGAAAGUCUGUAAUCAUUUUAAGGGUA, for which the self-cleavage came out at 1.39.

Take GUUAACGGUCAUAGGCCAUGGAAACUAGGAGCACCAUUUCGCUGCCAGUGAAGAAAUGAACAAAGAAAAUCUGGGCCUGGCAGGCAUCAAAAGAAAUAGUCUUGCGCUCAACCAGAAGGUCUGUAAUCAUUUUAAGGGUA: the self-cleavage stood at 0.49.

For GUUAACGGUCAUAGGCCAUGGAAACUAGGAGCACCAUUUCGCUGCCAGUGAAGAAAUGAACAAAGAAAAUCUGGGCCAGGCAGGCAUCAAAAGAAAUAGUCUUGCGCUCAACCAGAAAGUCUGUAAUUAUCUUAAGGGUA, the self-cleavage came out at 1.17.

For the variant GUUAACGGUCAUAGGCCAUGGAAACUAGGAGCACCAUUUCGCUGCCAGUGAAGGAAUGAACAAAGAAAAUCUGGGCCAGGCAGGCACCAAAAGAAAUAGUCUUGCGCUCAACCAGAAAGUCUGUAAUCAUUUUAAGGGUA, the self-cleavage is 0.9.

For GUUAACGGUCAUAGGCCAUGGAAACUAGGAGCACCAUUUCGCUGCCAAUGAAGAAAUGAACAGAGAAAAUCUGGGCCAGGCAGGCAUCAAAAGAAAUAGUCUUGCGCUCAACCAGAAAGUCUGUAAUCAUUUUAAGGGUA, the self-cleavage worked out at 0.93.

Take GUUAACGGUCAUAGGCCAUGGAAACUAGGGGCACCAUUUCGCUGCCAGUGAAGAAAUGAACAAAGAAAAUCUGGGCCAGGCAGGCAUCAAAAGAAAUAGUCUUGCGCUCAACCAGAAAGCCUGUAAUCAUUUUAAGGGUA: the self-cleavage is 1.04.

On to GUCAACGGUCAUAGGCCAUGGAAACUAGGAGCACCAUUUCGCUGCCAGUGAAGAAAUGAACAAAGAAAAUCUGGGCCAGGCAGGCAUCAAAAGAAGUAGUCUUGCGCUCAACCAGAAAGUCUGUAAUCAUUUUAAGGGUA, for which the self-cleavage was determined as 1.3.

In the case of GUUAACGGUCAUAGGCCAUGGAAAAUAGGAGCACCAUUUCGCUGCCAGUGAAGAAAUGAACAAAGAAAAUCUGGGCCAGGCAGGCAUCAAAAGAAAUAGUCUUGCGCUCAACCAGAAAGUCUGUAAUCAUUUUAAGGGUA, the self-cleavage worked out at 0.92.

Consider GUUAACGGUCAUAGGCCAUGGAAACUAGGAGCACCAUUUCGCUGCCAGUGAAGAAAUGGACAAAGAAAAUCUGGGCCAGGCAGGCAUCAAAAGAAAUAGUCUUGCGCUCAACCAGUAAGUCUGUAAUCAUUUUAAGGGUA, for which the self-cleavage was found to be 0.32.

For the variant GUUAACGGUCAUAGGCCAUGGAAACUAGGAGCACCAUUUCGCUGCCAGUGAAGAUAUGAACAAAGAAAAUCUGGGCCAGGCAGGCAUCAAAAGAAAUAGUCUUGCGCUCAACCAGGAAGUCUGUAAUCAUUUUAAGGGUA, the self-cleavage worked out at 0.88.

For the variant GUUAACGGUCAUAGGCCAUGGAAACUAGGAGCACCAUUUCGCUGCCAGUGAAGUAAUGAACAAAGAAAAUCUGGGCCAGGCAGGCAUCAAAAGAAAUAGUCUUGCGCUCAACCGGAAAGUCUGUAAUCAUUUUAAGGGUA, the self-cleavage amounted to 0.14.

In the case of GUUAACGGUCAUAGGCCAUGGAAACUUGGAGCACCAUUUCGCUGCCAGUGAAGAAAUGAACAAAGAAAAUCUGGGCCAGGCAGGCAUCAAAAGAAAUAGUCUUGCGCUCAACCAAAAAGUCUGUAAUCAUUUUAAGGGUA, the self-cleavage is 0.07.

Regarding GUUAACGAUCAUAGGCCAUGGAAACUAGGAGCACCAUUUCGCUGCCAGUGAAGAAAUGAACAAAGAAAGUCUGGGCCAGGCAGGCAUCAAAAGAAAUAGUCUUGCGCUCAACCAGAAAGUCUGUAAUCAUUUUAAGGGUA, the self-cleavage turned out to be 1.29.

In the case of GUUAACGGUCAUAGGCCAUGGAAACUAGGAGCACCAUUUCGCUGCCAGUGAAGAAAUGAACAAAGAAAAUCUGGGCCAGGCAGGCAUCAAAGGAAAUAGUCUUGCGCUCAACCAGAAAAUCUGUAAUCAUUUUAAGGGUA, the self-cleavage came out at 2.3.

On to GUUAACGGUCAUAGGCCAUGGAACCUAGGAGCACCAUUUCGCUGCCAGUGAAGAAAUGAACAAAGAAAAUCUGGGCCAGGCAGGCAUCAAAAGAAAUAGUCCUGCGCUCAACCAGAAAGUCUGUAAUCAUUUUAAGGGUA, for which the self-cleavage came out at 1.22.

GUUAACGGUCAUAGGCCAUGGAAACUAGGAGCACUAUUUCGCUGCCAGUGAAGAAAUGAGCAAAGAAAAUCUGGGCCAGGCAGGCAUCAAAAGAAAUAGUCUUGCGCUCAACCAGAAAGUCUGUAAUCAUUUUAAGGGUA: the self-cleavage is 0.76.

As for GUUAACGGUCAUAGGCCAUGGAAACUAGGAGCACCAUUUCGCUGCCAGUGAAGAAAUGAACAAAGAAAAUCUGGGCCAGGCAGGCAUCAGAAGAAAUAGUCUUGCGCUCAACCAGAACGUCUGUAAUCAUUUUAAGGGUA, the self-cleavage amounted to 0.82.

Take GUUAACGGUCAUAGGCCAUGGAAACUAGGAGCACCAUUUCGCUGCCAGUGAAGAAAUGAACAAAGAAAAUCUGGGCCAGGCAGGCAUCAAAAGAAAUAGUCUUGCGCUAAACCAGAAAGUCUGUAACCAUUUUAAGGGUA: the self-cleavage was found to be 0.17.

As to GUUAACGGUCAUAGGCCAUGGAAAUUAGGAGCACCAUUUCGCUGCCAGUGAAGAAGUGAACAAAGAAAAUCUGGGCCAGGCAGGCAUCAAAAGAAAUAGUCUUGCGCUCAACCAGAAAGUCUGUAAUCAUUUUAAGGGUA, the self-cleavage was 0.46.

GUUAACGGUCAUAGGCCAUGGAAACUAGGAGCACCAUUUUGCUGCCAGUGAAGAAAUGAACAAAGAAAAUCUGGGCCAGGCAGGCAUCAAAAGAAAUAGUCUUGCGCUCAACCAGCAAGUCUGUAAUCAUUUUAAGGGUA: the self-cleavage is 0.08.

In the case of GUUAACGGUCAUAGGCCAUGGAAACUAGGAGCACCAUUUCGCUGCCAGUGAGGAAAUGAACAAAGAAAAUCUGGGCCAGGCAGGCAUCAAAAGAAAUAGUCUUGCGCUCAACCAGAAAGUCUGCAAUCAUUUUAAGGGUA, the self-cleavage came to 1.18.

Turning to GUUAACGGUCAUAGGCCAUGGAAACUAGGAGCACCAUUUCGCUGCCAGUGAAGAAAUGAACGAAGAAAAUCUGGGCCAGGCAGGCAUCAAAAGAAAUAGUCUUGCGCUCAACCAGAAAGUCAGUAAUCAUUUUAAGGGUA, the self-cleavage is 1.07.

On to GUUAACGGUAAUAGGCCAUGGAAACUAGGGGCACCAUUUCGCUGCCAGUGAAGAAAUGAACAAAGAAAAUCUGGGCCAGGCAGGCAUCAAAAGAAAUAGUCUUGCGCUCAACCAGAAAGUCUGUAAUCAUUUUAAGGGUA, for which the self-cleavage came out at 0.63.

On to GUUAACGGUCAUAGGCCAUGGAAACUAGGUGCACCAUUUCGCUGCCAGUGAAGAAAUGAACAAAGAAAAUCUUGGCCAGGCAGGCAUCAAAAGAAAUAGUCUUGCGCUCAACCAGAAAGUCUGUAAUCAUUUUAAGGGUA, for which the self-cleavage is 0.17.

For the variant GUUAACGGUCAUAGGCCAUGGAAACUGGGAGCACCAUUUCGCUGCCAGUGAAGAAAUGAACAAAGAUAAUCUGGGCCAGGCAGGCAUCAAAAGAAAUAGUCUUGCGCUCAACCAGAAAGUCUGUAAUCAUUUUAAGGGUA, the self-cleavage is 2.19.

GUUAACGGUCAUAGGCCAUGGAAACUAGGAGCACCAUUUCGCUGCCAGUGAAGAAAUGAACAAAGAAAAUCAGGGCCAGGCAGGCAUCAAAAGAAAUAGUUUUGCGCUCAACCAGAAAGUCUGUAAUCAUUUUAAGGGUA: the self-cleavage was determined as 0.04.

With GUUAACGGUCAUAGGCCAUGGAAACUAGGAGCACCAUUUCGCUGCCAGUGAAGAAAUGAACAAAGAAAAUCUGGGCCAGGCAGGCAUCAAAAGAAAUAGUCUUGCGCCCAACCAGAAAGUCUGUAAUCAUUUUAAGGGCA, the self-cleavage was found to be 0.01.

As to GUUAACGGUCAUAGGCCAUGGAAACUAGGAGCAUCAUUUCGCUGCCAGUGAAGAAAUGAACAAAGAAAAUCUGGGCCAGGCAGGCAUCAAGAGAAAUAGUCUUGCGCUCAACCAGAAAGUCUGUAAUCAUUUUAAGGGUA, the self-cleavage came to 1.1.

Regarding GUUAACGGUCAUAGGCCAUGGAAACUAGGAGCACCAUUUCGCUGCCAGUGAAGAAAUGAACAAAGAAAAUCUGGGCCAGGCAGGCAUCAAAAGAAAUAGUCUGGCGCUCAACCAGAAAGUCCGUAAUCAUUUUAAGGGUA, the self-cleavage worked out at 0.01.

Consider GUUAACGGUCAUAGGCCAUGGAAACUAGGAGCACCAUUUCGCUGCCAGUGAAGAAAUGAACAAAGAAAAUCUGGGCCAGGCAGGCGACAAAAGAAAUAGUCUUGCGCUCAACCAGAAAGUCUGUAAUCAUUUUAAGGGUA, for which the self-cleavage came to 1.4.

In the case of GUUAACGGUCAUAGGCCAUGGAAACUAGGAGCACCAUUUCGCUGCCAGUGAAGAAAUGAACAAUGAAAAUCCGGGCCAGGCAGGCAUCAAAAGAAAUAGUCUUGCGCUCAACCAGAAAGUCUGUAAUCAUUUUAAGGGUA, the self-cleavage came out at 0.34.

For the variant GUUAACGGUCAUAGGCCAUGGAAACUAGGAGCACCAUUUCGCUGCCAGUGAAGAAGUGAACAAAGAAAAUCUGGGCCAGGCAGGCAUCAAAAGAAAUAGUCUUGCGCUCAACCAGAAAGUCUGUAAUCAUAUUAAGGGUA, the self-cleavage worked out at 0.6.

In the case of GUUAACGGUCAUAGGCCAUGGAAACUAGGAGCACCCUUUCGCUGCCAGUGAAGAAAUGAACAAAGAAAAUCUGGGCCAGGCAGGCAUCAAAAGAAGUAGUCUUGCGCUCAACCAGAAAGUCUGUAAUCAUUUUAAGGGUA, the self-cleavage amounted to 1.9.

For GUUAACGGUCAUAGGCCAUGGAAACUAGGAGCACCAUUUCGCUGCCAGUGAAGAAAUGAACAAAGAAAAUCUGGGGCAGGCAGGCAUCAAAAGAAAUAGUCUUGCGCUCAACCAGAAAGUCCGUAAUCAUUUUAAGGGUA, the self-cleavage was 0.15.

With GUUAACGGUCAUAGGCCAUGGAAACUAGGAGCACCAUUUCGCUGCCAGUGAAGAAAUGAACAAAGAGAAUCUGGGCCAGGCAGGCAUCAAAAGGAAUAGUCUUGCGCUCAACCAGAAAGUCUGUAAUCAUUUUAAGGGUA, the self-cleavage turned out to be 1.74.

Take GUUAACGGUCCUAGGCCAUGGAAACUAGGAGCACCAUUUCGCUGCCAGUGAAGAAAUGAACAAAGAAAAUCUGGGCCAGGCAGGCAUCAAAAGAAAUAGUCUCGCGCUCAACCAGAAAGUCUGUAAUCAUUUUAAGGGUA: the self-cleavage turned out to be 0.98.
